From patent US20130296252A1 (University of Texas, published 2013) come the findings set out here.

Bridge positions count the residues as written; N and C are the ends. Ends that are not written are not given here.

B1: CLFMRLAWC-phage (phage displaying the cyclic peptide CLFMRLAWC) (peptide)
peptide: CLFMRLAWC
modifications: disulfide 1-9 (inferred); also: displayed on phage
notes: also called phage clone displaying the peptide motif Arg-Met-Phe-Leu
B2: mouse MUC18 (melanoma cell adhesion molecule) (receptor, UniProt Q8R2Y2 24-648, looked up)
chain: VPGEEKQPVPTPDLVEAEVGSTALLKCGPSRASGNFSQVDWFLIHKERQILIFRVHQGKGQREPGEYEHRLSLQDSVATLALSHVTPHDERMFLCKSKRPRLQDHYVELQVFKAPEEPTIQANVVGIHVDRQELREVATCVGRNGYPIPQVLWYKNSLPLQEEENRVHIQSSQIVESSGLYTLKSVLSARLVKEDKDAQFYCELSYRLPSGNHMKESKEVTVPVFYPAEKVWVEVEPVGLLKEGDHVTIRCLTDGNPQPHFTINKKDPSTGEMEEESTDENGLLSLEPAEKHHSGLYQCQSLDLETTITLSSDPLELLVNYVSDVQVNPTAPEVQEGESLTLTCEAESNQDLEFEWLRDKTGQLLGKGPVLQLNNVRREAGGRYLCMASVPRVPGLNRTQLVSVGIFGSPWMALKERKVWVQENAVLNLSCEASGHPQPTISWNVNGSATEWNPDPQTVVSTLNVLVTPELLETGAECTASNSLGSNTTTIVLKLVTLTTLIPDSSQTTGLSTLTVSPHTRANSTSTEKKLPQPESKGVVIVAVIVCTLVLAVLGAALYFFYKKGKLPCGRSGKQEITLPPTRKSEFVVEVKSDKLPEEMALLQGSNGDKRAPGDQGEKYIDLRH
notes: whole, on cells; Present on B16 melanoma cells before and after co-culture with B-1 lymphocytes; In the immunocapture assay it was captured from cell membrane extracts by anti-MUC18 antibody; In Western blot and co-IP it came from cell membrane extracts; also called MCAM; native mouse MUC18
B3: H111-S120 phage (phage clone displaying the mouse MUC18-derived peptide HDERMFLCKS, residues H111-S120 of MUC18) (peptide)
peptide: HDERMFLCKS
notes: also called MUC18-derived phage; MUC18-derived (H111-S120) phage

Series [1] addresses B2. Description: phage binding (relative TU) to B16 melanoma cells post versus pre co-culture with B-1 lymphocytes.
Series [2] deals with B2. The experiment in a line: phage binding (relative TU) to B16 melanoma cells post co-culture with B-1 lymphocytes.
Series [3] deals with the molecule itself. Description: conclusion drawn from phage binding, immunocapture, antibody inhibition and shRNA experiments.
The target of series [4] is B2. Description: phage binding to B16 melanoma cells post versus pre co-culture with B-1 lymphocytes.
The target of series [5] is T1, human MUC18 on human melanoma cell lines (human, UniProt P43121 24-646).
T1 construct: whole, on cells; also called MCAM; CD146
T1 sequence (looked up): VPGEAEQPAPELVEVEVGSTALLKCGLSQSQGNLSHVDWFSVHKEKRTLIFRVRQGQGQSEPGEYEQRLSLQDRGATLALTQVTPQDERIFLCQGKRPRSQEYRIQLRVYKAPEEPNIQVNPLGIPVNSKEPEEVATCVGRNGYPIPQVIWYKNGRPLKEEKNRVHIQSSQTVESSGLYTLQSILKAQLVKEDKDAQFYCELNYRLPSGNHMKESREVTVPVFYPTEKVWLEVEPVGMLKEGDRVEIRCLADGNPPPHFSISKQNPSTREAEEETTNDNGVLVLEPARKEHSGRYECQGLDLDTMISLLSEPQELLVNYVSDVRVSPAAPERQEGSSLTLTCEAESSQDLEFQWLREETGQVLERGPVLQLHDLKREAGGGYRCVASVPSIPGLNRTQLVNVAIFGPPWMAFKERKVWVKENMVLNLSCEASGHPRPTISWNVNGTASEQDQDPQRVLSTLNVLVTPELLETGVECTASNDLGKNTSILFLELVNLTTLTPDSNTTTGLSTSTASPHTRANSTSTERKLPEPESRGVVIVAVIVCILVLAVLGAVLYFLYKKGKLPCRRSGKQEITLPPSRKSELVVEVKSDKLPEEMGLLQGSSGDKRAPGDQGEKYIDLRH
The experiment in a line: phage binding to a panel of 8 human melanoma cell lines.

The target of series [6] is B2. The experiment in a line: alanine-scanning phage binding to melanoma cells.

B1: the “fold increase in phage binding relative to melanoma cells without co-culture with B-1 lymphocytes” value in series [1] is roughly 12 fold. Besides, in series [2], the “fold increase in phage binding relative to control insertless phage” value was roughly 20 fold.
With B2, the binding result in series [3] is “binds”.
Regarding B3, the “fold increase in phage binding relative to baseline binding to melanoma cells pre co-culture with B-1 lymphocytes” value in series [4] was determined as 2.5 fold. Moreover, the binding result in series [5] was “binds”.
Regarding HDEAMFLCKS (Numbering counts on mouse MUC18) [H111-S120 phage with Arg114 mutated (alanine scanning)], the binding result in series [6] was “no binding”.
As to HDERMFLCAS (Numbering counts on mouse MUC18) [H111-S120 phage with Lys119 mutated (alanine scanning)], in series [6], the binding result is reported as “no binding”.
Still for that read-out and setting: in the case of HDERMFLCKA (Numbering counts on mouse MUC18) [H111-S120 phage with Ser120 mutated (alanine scanning)] it was “no binding”; in that of HDERMFLAKS (Numbering counts on mouse MUC18) [H111-S120 phage with Cys118 mutated (alanine scanning)], “no binding”.
